Measurements taken from publication PMC9116965 (iScience, 2022).

Target: SARS-CoV-2 Omicron RBD protein (SARS-CoV-2 Omicron (BA.1), S371L | S373P | S375F)
Test: SPR

Row | Binder | fold decrease of binding affinity against WT RBD | fold decrease of binding affinity against the IgG form
1 | STS165 (full-length IgG form) (antibody, V domains shown) VH: EVQLVESGGGVVRPGGSLRLSCAASGFTFDDYGMSWVRQAPGKGLEWVSGINWNGGSTGYADSVKGRFTISRDNAKNSLYLQMNSLRAEDTALYHCARVGYCGGDCYSLSLAGFPDYWGQGTLVTVSS VL: not shown | 3 fold | 
2 | STS165 Fab form (Fab, V domains shown) VH: EVQLVESGGGVVRPGGSLRLSCAASGFTFDDYGMSWVRQAPGKGLEWVSGINWNGGSTGYADSVKGRFTISRDNAKNSLYLQMNSLRAEDTALYHCARVGYCGGDCYSLSLAGFPDYWGQGTLVTVSS VL: not shown |  | > 50 fold
